From patent US20080241172A1 (CENTRE NATIONAL DE LA RECHERCHE SCIENTIFIQUE, published 2008)
Positions count from the first letter of the chain named. In names and notes the source's numbering stands.

Tests used:
[1] = target: the molecule itself; experiment: homodimers from transfected COS cells; sedimentation in sucrose gradients
Protocol: (§1) COS cells were transfected by the DEAE-dextran method, as previously described (Bon et al., 1997), using 4 μg of DNA encoding the AChE catalytic subunit and 4 μg of DNA encoding QN or PRAD-deleted QN, per 100 mm dish. Because Torpedo AChE folds into its active conformation at 27° C., but not at 37° C., the cells were incubated for two days at 37° C. after transfection, then transferred to 27° C. and maintained at this temperature for 3-4 days, in a medium containing 10% Nuserum (Inotech, Dottikon, Switzerland), which had been pretreated with 10⁻⁶ M soman to inactivate serum choline sterases.
(§2) Centrifugation was performed in 5-20% sucrose gradients (50 mM Tris-HCl, pH 7.5, 50 mM MgCl₂, either in the presence of 0.2% Brij-97 or in the presence of 0.2% Triton X-100) in a Beckman SW41 rotor, at 36,000 rpm, for 18 h at 6° C. The gradients contained Escherichia coli β-galactosidase (16 S) and alkaline phosphatase (6.1 S) as internal sedimentation standards (Bon et al., 1997). Amphiphilic molecules generally sediment faster in the presence of Triton X100 than of Brij-97, providing an indication on their amphiphilic character.

[2] = target: the molecule itself; experiment: homo-oligomers from transfected COS cells; sedimentation in sucrose gradients
Protocol: as §1, §2

[3] = target: the molecule itself; experiment: homo-oligomers from transfected COS cells; sedimentation in sucrose gradients (tetramers still formed, dimers not)
Protocol: as §1, §2

B1: Torpedo AChET mutant S19C (containing two cysteines at positions 19 and 37) (enzyme)
chain: DDDSELLVNTKSGKVMRTRIPVLSSHISAFLGIPFAEPPVGNMRFRRPEPKKPWSGVWNASTYPNNCQQYVDEQFPGFPGSEMWNPNREMSEDCLYLNIWVPSPRPKSATVMLWIYGGGFYSGSSTLDVYNGKYLAYTEEVVLVSLSYRVGAFGFLALHGSQEAPGNMGLLDQRMALQWVHDNIQFFGGDPKTVTLFGESAGRASVGMHILSPGSRDLFRRAILQSGSPNCPWASVSVAEGRRRAVELRRNLNCNLNSDEDLIQCLREKKPQELIDVEWNVLPFDSIFRFSFVPVIDGEFFPTSLESMLNAGNFKKTQILLGVNKDEGSFFLLYGAPGFSKDSESKISREDFMSGVKLSVPHANDLGLDAVTLQYTDWMDDNNGIKNRDGLDDIVGDHNVICPLMHFVNKYTKFGNGTYLYFFNHRASNLVWPEWMGVIHGYEIEFVFGLPLVKELNYTAEEEALSRRIMHYWATFAKTGNPNEPHSQESKWPLFTTKEQKFIDLNTEPIKVHQRLRVQMCVFWNQFLPKLLNATETIDEAERQWKTEFHRWSCYMMHWKNQFDQYSRHENCAEL
notes: It may include a signal peptide; also called mutated torpedo AChE
- binding result [1]: binds

B2: Torpedo AChET mutant with H34 of the t peptide replaced by a cysteine (enzyme)
chain: B1 chain with C554S, H569C
- binding result [1]: binds

B3: Torpedo AChET mutant with residue 3 of the t peptide replaced by a cysteine, with mutation of C37 (C37S) (enzyme)
chain: B1 chain with I538C, C554S, C572S
notes: also called 13 (printed; read as I3) with C37S
- binding result [1]: binds

B4: Torpedo AChET mutant S19C/C37S (enzyme)
chain: B1 chain with C572S
notes: also called S19 with C37S
- binding result [1]: binds

B5: Torpedo AChET mutant with H34 of the t peptide replaced by a cysteine, with mutation of C37 (C37S) (enzyme)
chain: B1 chain with C554S, H569C, C572S
notes: also called H34 with C37S
- binding result [1]: binds

B6: wild type Torpedo AChET (enzyme)
chain: B1 chain with C554S
notes: The wild type is built by undoing that change; Expressed in transfected COS cells; cell extracts and medium were analysed; also called wild type AChET subunits
- binding result [2]: binds

B7: Torpedo AChET mutant with residue 3 of the t peptide replaced by a cysteine (enzyme)
chain: B1 chain with I538C, C554S
notes: also called 13 (printed; read as I3)
- binding result [1]: binds

B8: Torpedo AChET mutant with M21 of the t peptide replaced by a cysteine (enzyme)
chain: B1 chain with C554S, M556C
- binding result [1]: binds

B9: Torpedo AChET mutant with M22 of the t peptide replaced by a cysteine, with mutation of C37 (C37S) (enzyme)
chain: B1 chain with C554S, M557C, C572S
notes: also called M22 with C37S
- binding result [1]: binds

B10: Torpedo AChET mutant with T12 of the t peptide replaced by a cysteine, with mutation of C37 (C37S) (enzyme)
chain: B1 chain with T547C, C554S, C572S
notes: also called T12 with C37S
- binding result [1]: binds

B11: Torpedo AChET mutant with A6 of the t peptide replaced by a cysteine (enzyme)
chain: B1 chain with A541C, C554S
- binding result [1]: binds

B12: Torpedo AChET mutant with M22 of the t peptide replaced by a cysteine (enzyme)
chain: B1 chain with C554S, M557C
- binding result [1]: binds

B13: Torpedo AChET mutant T12C (enzyme)
chain: B1 chain with T547C, C554S
- binding result [2]: binds

B14: Torpedo AChET mutant with A6 of the t peptide replaced by a cysteine, with mutation of C37 (C37S) (enzyme)
chain: B1 chain with A541C, C554S, C572S
notes: also called A6 with C37S
- binding result [1]: binds

B15: Torpedo AChET mutant with M21 of the t peptide replaced by a cysteine, with mutation of C37 (C37S) (enzyme)
chain: B1 chain with C554S, M556C, C572S
notes: also called M21 with C37S
- binding result [1]: binds

B16: Torpedo AChET mutant C37S (enzyme)
chain: B1 chain with C554S, C572S
- binding result [3]: binds
